T1: EBOV GP on EBOV-eGFP-Mayinga authentic virus (Ebola virus (EBOV), Mayinga, UniProt Q05320 33-676)
T1 sequence: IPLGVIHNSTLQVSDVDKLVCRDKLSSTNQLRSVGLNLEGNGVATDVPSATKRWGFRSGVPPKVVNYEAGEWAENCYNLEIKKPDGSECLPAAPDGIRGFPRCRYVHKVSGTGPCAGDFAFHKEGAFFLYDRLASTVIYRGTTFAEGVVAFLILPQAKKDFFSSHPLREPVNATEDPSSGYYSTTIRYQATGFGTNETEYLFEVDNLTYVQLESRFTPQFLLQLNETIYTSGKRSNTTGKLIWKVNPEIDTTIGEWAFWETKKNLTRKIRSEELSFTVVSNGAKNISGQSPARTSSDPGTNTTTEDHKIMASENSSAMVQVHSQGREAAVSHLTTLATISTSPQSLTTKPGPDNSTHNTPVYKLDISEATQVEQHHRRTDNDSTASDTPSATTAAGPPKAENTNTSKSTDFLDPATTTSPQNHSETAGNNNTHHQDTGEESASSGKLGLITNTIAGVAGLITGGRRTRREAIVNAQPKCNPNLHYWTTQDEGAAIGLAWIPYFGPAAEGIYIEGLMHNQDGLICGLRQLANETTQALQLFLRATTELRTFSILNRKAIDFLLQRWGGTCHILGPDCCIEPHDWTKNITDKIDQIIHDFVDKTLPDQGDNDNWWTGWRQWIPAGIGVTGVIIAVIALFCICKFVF

T2: SUDV GP (Sudan ebolavirus (SUDV), UniProt Q7T9D9 33-637)
T2 construct: also called Sudan ebolavirus GP
T2 sequence: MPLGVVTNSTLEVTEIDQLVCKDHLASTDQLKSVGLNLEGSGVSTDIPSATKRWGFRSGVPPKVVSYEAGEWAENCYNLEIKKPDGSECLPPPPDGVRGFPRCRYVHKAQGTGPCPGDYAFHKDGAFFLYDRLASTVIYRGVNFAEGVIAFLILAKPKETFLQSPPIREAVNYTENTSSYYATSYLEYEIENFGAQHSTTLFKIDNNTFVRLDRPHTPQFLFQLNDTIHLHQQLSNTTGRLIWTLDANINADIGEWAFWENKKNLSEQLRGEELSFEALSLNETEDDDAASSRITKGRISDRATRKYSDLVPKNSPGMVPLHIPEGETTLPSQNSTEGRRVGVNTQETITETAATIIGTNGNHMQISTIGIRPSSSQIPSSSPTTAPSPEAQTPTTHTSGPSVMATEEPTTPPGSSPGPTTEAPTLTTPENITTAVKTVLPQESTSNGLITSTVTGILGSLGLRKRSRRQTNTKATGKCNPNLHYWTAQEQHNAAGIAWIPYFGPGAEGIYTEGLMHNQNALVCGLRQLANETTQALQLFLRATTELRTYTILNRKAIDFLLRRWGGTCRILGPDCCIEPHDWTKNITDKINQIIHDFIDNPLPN

T3: RESTV GP (RESTV, UniProt Q66799 34-638)
T3 sequence: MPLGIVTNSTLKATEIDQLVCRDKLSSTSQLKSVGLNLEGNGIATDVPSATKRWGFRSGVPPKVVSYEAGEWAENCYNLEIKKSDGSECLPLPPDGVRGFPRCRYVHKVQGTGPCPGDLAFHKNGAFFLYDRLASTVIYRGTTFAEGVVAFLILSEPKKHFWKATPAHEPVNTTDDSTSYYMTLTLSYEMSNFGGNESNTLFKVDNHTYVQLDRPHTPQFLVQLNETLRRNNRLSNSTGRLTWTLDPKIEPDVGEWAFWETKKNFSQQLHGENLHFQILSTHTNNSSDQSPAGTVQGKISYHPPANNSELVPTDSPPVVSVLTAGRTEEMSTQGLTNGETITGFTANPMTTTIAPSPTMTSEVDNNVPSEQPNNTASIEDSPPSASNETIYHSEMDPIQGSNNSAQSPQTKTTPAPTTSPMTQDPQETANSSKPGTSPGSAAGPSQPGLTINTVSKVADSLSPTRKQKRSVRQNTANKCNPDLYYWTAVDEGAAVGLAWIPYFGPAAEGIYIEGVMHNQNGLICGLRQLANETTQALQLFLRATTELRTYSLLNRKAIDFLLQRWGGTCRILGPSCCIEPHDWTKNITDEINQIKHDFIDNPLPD

B1: MIL77-1 (antibody, V domains shown)
VH: EVALEESGGGLMQPGGSMKLSCVASGFTFSNYWMNWVRQSPEKGLEWVAEIRLKSNNYATHYAESVKGRFTISRDDSKRSVYLQMNTLRAEDTGIYYCTRGNGNYRAMDYWGQGTSVTVSS
VL: DIQMTQSPASLSVSVGETVSITCRASENIYSSLAWYQQKQGKSPQLLVYSATILADGVPSRFSGSGSGTQYSLKINSLQSEDFGTYYCQHFWGTPYTFGGGTKLEIKR
B2: monoclonal antibody 2G1 (antibody, V domains shown)
VH: EVQLVESGGGLVKRGGSLRLSCVVSGYTFGGYSMHWVRQAPGKGLEWVSGISSSSYYKYYADSVKGRFTISRDNAKNSLYLQMNSLRAEDTAVYYCARDMGYCSGGSCPNFDFWGQGTTVTVSS
VL: DIQMTQSPSSLSASVGDRVTITCRTSQSISNYLNWYQQIPGKAPKLLISTASNLHSGVSSRFSGSGSGTHFTLTISSLQPEDFATYYCQQSYSTPSFGQGTKVEIKR
notes: also called 2G1-WT; wild-type 2G1

Legend:
[1] = target: T1, EBOV GP on EBOV-eGFP-Mayinga authentic …; experiment: cell-based or functional assay
[2] = target: T2, SUDV GP; experiment: ELISA, purified antibody on coated GP (1 µg/mL)
[3] = target: T3, RESTV GP; experiment: ELISA, purified antibody on coated GP (1 µg/mL)
[4] = target: T4, sGP (Ebola virus (EBOV), UniProt P60170 33-324); experiment: ELISA on coated truncated GP
T4 construct: also called secreted glycoprotein

Row | Binder | IC50, EBOV-eGFP-Mayinga authentic virus neutralization test [1] | EC50 [2] | EC50 [3] | binding result [4]
1 | B1 | 3.12 µg/mL |  |  | 
2 | B2 |  | 0.0048 µg/mL | 0.026 µg/mL | no binding

Source: patent publication US20240254201A1 (ACADEMY OF MILITARY MEDICAL SCIENCE PLA, published 2024)
